6 molecules from US10400249B2, “HPPD variants and methods of use” (priority 2014, dated 2019) can be followed below.

The test system of one data set is T0 soybean plants. In words: greenhouse spray test of T0 soybean plants for tolerance to mesotrione. The class given is in vivo. The following applies: 316 grams AI per hectare. The protocol: T0 soybean plants expressing an HPPD inhibitor tolerant enzyme of the present invention, along with a gene conferring tolerance to glyphosate and a gene conferring tolerance to glufosinate or having a “plant expression cassette”, which includes only an HPPD inhibitor tolerant enzyme of the present invention, were tested for tolerance to mesotrione. Prior greenhouse trials with the transgenic plants, soy transformants were routinely analyzed for the expression and presence of the transgenes using the ELISA protein detection method (see detailed description under item D and H). Only plants recovering in the selection media and having a detectable HPPD transgene protein expression were used for the herbicide tolerance analysis. A DeVries Tracker Sprayer was calibrated prior to each spraying. The chemical formulation used for mesotrione (MST) testing was Callisto® 4 SC formulation supplemented with ammonium sulfate and methylated rape seed oil (Actirob). Spray tests were conducted using 3× the field rate (equivalent to 9 fluid ounce per acre of the same herbicide formulation that containing 40% the active ingredient (AI), mesotrione), which equals 316 grams AI per hectare. Tolerance was evaluated one week after spraying. […] A tolerance rating of “0” was assigned to plants that their shoot apexes, newly emerged trifoliates and some axillary buds were completely bleached. A rating of “1” was assigned to plants having slight tolerance, i.e., the newest plant shoot tissues had some green leaves and are not bleached completely. A rating of “2” was assigned to plants showing moderate tolerance, i.e., more than 50% of the leaf area of the top three trifoliates showing no chlorosis or bleaching damage. A rating of “3” was assigned to plants showing nearly perfect tolerance, i.e., less than 10% of the leaf area showing chlorosis or very slight bleaching.

In data set [1] the test system is Pseudomonas fluorescens HPPD protein. In words: OD assay: HPPD activity and pI50 from HPP remaining after derivatisation with DNP. Format: biochemical. Conditions: for Activity DeltaE/24 min μg Protein: HPPD enzyme activity of the clone; for tolerance (pI50) DKN: inhibitor diketonitrile (DKN), negative log of molar concentration; for tolerance (pI50) MST: inhibitor mesotrione (MST). The method in brief:
(§1)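 Purified Pseudomonas fluorescens HPPD, room temperature. OD assay: 50 mM Tris-HCl pH 7.8, 0.5 mM HPP, 10 mM ascorbate, catalase, 24 min, remaining HPP derivatised with DNP, read at 405 nm, inhibitor 5.0×10^−6 to 5.0×10^−4 M. HGD assay: 200 mM Tris-HCl pH 7.6, 600 μM HPP, 20 μM FeSO4, coupled HGA dioxygenase, initial rates at 318 nm, inhibitor ≤100 μM, time-course gives inhibition type; pI50 from 4-parameter fits.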

The test system is the same in data set [2]. In words: HGD assay: HPPD activity coupled to HGA dioxygenase, pI50 and type of inhibition (time-course). The class given is biochemical. The following applies: for tolerance (pI50) Cmpd. 1: inhibitor Cmpd. 1; for tolerance (pI50) Cmpd. 1 / tolerance (pI50) Cmpd. 2 / tolerance (pI50) Cmpd. 3 / tolerance (pI50) Cmpd. 4 / tolerance (pI50) Cmpd. 5 / tolerance (pI50) DKN / tolerance (pI50) MST / tolerance (pI50) TBT: HGD assay; for tolerance (pI50) Cmpd. 2: inhibitor Cmpd. 2; for tolerance (pI50) Cmpd. 3: inhibitor Cmpd. 3; for tolerance (pI50) Cmpd. 4: inhibitor Cmpd. 4; for tolerance (pI50) Cmpd. 5: inhibitor Cmpd. 5; for tolerance (pI50) DKN: inhibitor diketonitrile (DKN); for tolerance (pI50) MST: inhibitor mesotrione (MST); for tolerance (pI50) TBT: inhibitor tembotrione (TBT). The method in brief: as §1

Where [3] appears, read: HT-triple plant expression cassette, mesotrione 3X field rate, seven days after treatment.

In the case of `CS(=O)(=O)c1ccc(C(=O)C2C(=O)CCCC2=O)c([N+](=O)[O-])c1` [mesotrione, 2-[4-(methylsulfonyl)-2-nitrobenzoyl]-1,3-cyclohexanedione, reference compound], the “leaf damage of wild type soybean plants” value in the data set with T0 soybean plants (Callisto 4 SC formulation, 3× field rate, one week after spraying) was found to be 100%.

B1: FLP129: PfHPPD variant E335P, G336F, K339A, A340Q (protein)
chain: MADLYENPMGLMGFEFIEFASPTPGTLEPIFEIMGFTKVATHRSKNVHLYRQGEINLILNNEPNSIASYFAAEHGPSVCGMAFRVKDSQKAYNRALELGAQPIHIDTGPMELNLPAIKGIGGAPLYLIDRFGEGSSIYDIDFVYLEGVERNPVGAGLKVIDHLTHNVYRGRMVYWANFYEKLFNFREARYFDIKGEYTGLTSKAMSAPDGMIRIPLNEESSKGAGQIEEFLMQFNGEGIQHVAFLTDDLVKTWDALKKIGMRFMTAPPDTYYEMLEGRLPDHGEPVDQLQARGILLDGSSVEGDKRLLLQIFSETLMGPVFFEFIQRKGDDGFGPFNFAQLFESIERDQVRRGVLTAD
modifications: HPPD variant - FLP129
notes: PfHPPD variant E335P, G336F, K339A, A340Q
For the molecule B1, in data set [1], the “Activity DeltaE/24 min μg Protein” value was 0.36 DeltaE/24 min μg Protein, the “tolerance (pI50) DKN” value was 3.3 and the “tolerance (pI50) MST” value is on record as 3.7. Moreover, the “tolerance (pI50) Cmpd. 2” value in data set [1] (inhibitor Cmpd. 2) is listed as 5.4. Also, in data set [1] (inhibitor tembotrione (TBT)), the “tolerance (pI50) TBT” value stood at 4.8. In data set [2], the “mechanism of inhibition by diketonitrile (DKN), time-course of inhibition” value is given as “fully reversible inhibitors”; the “mechanism of inhibition by mesotrione (MST), time-course of inhibition” value is listed as “fully reversible inhibitors”; the “mechanism of inhibition by tembotrione (TBT), time-course of inhibition” value is given as “fully reversible inhibitors”; the “tolerance (pI50) Cmpd. 1” value was found to be 6.1. Besides, in data set [2], the “tolerance (pI50) Cmpd. 2” value is 5.8, the “tolerance (pI50) Cmpd. 3” value worked out at 5.9, the “tolerance (pI50) Cmpd. 4” value worked out at 6.6 and the “tolerance (pI50) Cmpd. 5” value stood at 6.1. In data set [2], the “tolerance (pI50) DKN” value was 4.6, the “tolerance (pI50) MST” value turned out to be 5.0 and the “tolerance (pI50) TBT” value is 6.2. In the data set with T0 soybean plants (setting [3]), the “Number of T0 soybean plants with herbicide tolerance rating 0 (completely bleached)” value amounted to 13, the “Number of T0 soybean plants with herbicide tolerance rating 1 (slight tolerance)” value stood at 18, the “Number of T0 soybean plants with herbicide tolerance rating 2 (moderate tolerance)” value is reported as 35 and the “Number of T0 soybean plants with herbicide tolerance rating 3 (nearly perfect tolerance)” value came to 12.

B2: PfG336F: reference PfHPPD mutant G336F (protein)
chain: MADLYENPMGLMGFEFIEFASPTPGTLEPIFEIMGFTKVATHRSKNVHLYRQGEINLILNNEPNSIASYFAAEHGPSVCGMAFRVKDSQKAYNRALELGAQPIHIDTGPMELNLPAIKGIGGAPLYLIDRFGEGSSIYDIDFVYLEGVERNPVGAGLKVIDHLTHNVYRGRMVYWANFYEKLFNFREARYFDIKGEYTGLTSKAMSAPDGMIRIPLNEESSKGAGQIEEFLMQFNGEGIQHVAFLTDDLVKTWDALKKIGMRFMTAPPDTYYEMLEGRLPDHGEPVDQLQARGILLDGSSVEGDKRLLLQIFSETLMGPVFFEFIQRKGDDGFGEFNFKALFESIERDQVRRGVLTAD
modifications: HPPD variant - Pf336F
B2: in data set [1], the “Activity DeltaE/24 min μg Protein” value is 0.66 DeltaE/24 min μg Protein, the “tolerance (pI50) DKN” value amounted to 5.3 and the “tolerance (pI50) MST” value is given as 5.6. Moreover, in data set [2], the “tolerance (pI50) DKN” value came to 5.1, the “tolerance (pI50) MST” value is listed as 5.1 and the “tolerance (pI50) TBT” value was found to be 5.9.

B3: PfEvo33: reference PfHPPD mutant E335P, G336W (protein)
chain: MADLYENPMGLMGFEFIEFASPTPGTLEPIFEIMGFTKVATHRSKNVHLYRQGEINLILNNEPNSIASYFAAEHGPSVCGMAFRVKDSQKAYNRALELGAQPIHIDTGPMELNLPAIKGIGGAPLYLIDRFGEGSSIYDIDFVYLEGVERNPVGAGLKVIDHLTHNVYRGRMVYWANFYEKLFNFREARYFDIKGEYTGLTSKAMSAPDGMIRIPLNEESSKGAGQIEEFLMQFNGEGIQHVAFLTDDLVKTWDALKKIGMRFMTAPPDTYYEMLEGRLPDHGEPVDQLQARGILLDGSSVEGDKRLLLQIFSETLMGPVFFEFIQRKGDDGFGPWNFKALFESIERDQVRRGVLTAD
modifications: HPPD variant - PfEvo33
On to B3, for which, in data set [1], the “Activity DeltaE/24 min μg Protein” value is 0.25 DeltaE/24 min μg Protein, the “tolerance (pI50) DKN” value is recorded as 4.3 and the “tolerance (pI50) MST” value was 5.1. Further, in data set [2], the “tolerance (pI50) DKN” value came out at 4.6, the “tolerance (pI50) MST” value is 5.5 and the “tolerance (pI50) TBT” value is on record as 6.2.

B4: PfG336Y: reference PfHPPD mutant G336Y (protein)
chain: MADLYENPMGLMGFEFIEFASPTPGTLEPIFEIMGFTKVATHRSKNVHLYRQGEINLILNNEPNSIASYFAAEHGPSVCGMAFRVKDSQKAYNRALELGAQPIHIDTGPMELNLPAIKGIGGAPLYLIDRFGEGSSIYDIDFVYLEGVERNPVGAGLKVIDHLTHNVYRGRMVYWANFYEKLFNFREARYFDIKGEYTGLTSKAMSAPDGMIRIPLNEESSKGAGQIEEFLMQFNGEGIQHVAFLTDDLVKTWDALKKIGMRFMTAPPDTYYEMLEGRLPDHGEPVDQLQARGILLDGSSVEGDKRLLLQIFSETLMGPVFFEFIQRKGDDGFGEYNFKALFESIERDQVRRGVLTAD
modifications: HPPD variant - Pf336Y
As to B4, in data set [1], the “Activity DeltaE/24 min μg Protein” value stood at 0.66 DeltaE/24 min μg Protein, the “tolerance (pI50) DKN” value is 5.2 and the “tolerance (pI50) MST” value was 5.5. In data set [2], the “tolerance (pI50) DKN” value is on record as 4.9 and the “tolerance (pI50) MST” value stood at 5.0.

B5: PfG336W: reference PfHPPD mutant G336W (protein)
chain: MADLYENPMGLMGFEFIEFASPTPGTLEPIFEIMGFTKVATHRSKNVHLYRQGEINLILNNEPNSIASYFAAEHGPSVCGMAFRVKDSQKAYNRALELGAQPIHIDTGPMELNLPAIKGIGGAPLYLIDRFGEGSSIYDIDFVYLEGVERNPVGAGLKVIDHLTHNVYRGRMVYWANFYEKLFNFREARYFDIKGEYTGLTSKAMSAPDGMIRIPLNEESSKGAGQIEEFLMQFNGEGIQHVAFLTDDLVKTWDALKKIGMRFMTAPPDTYYEMLEGRLPDHGEPVDQLQARGILLDGSSVEGDKRLLLQIFSETLMGPVFFEFIQRKGDDGFGEWNFKALFESIERDQVRRGVLTAD
modifications: HPPD variant - Pf336W
Consider B5, for which, in data set [1], the “Activity DeltaE/24 min μg Protein” value amounted to 0.40 DeltaE/24 min μg Protein, the “tolerance (pI50) DKN” value is reported as 5.0 and the “tolerance (pI50) MST” value came to 5.3. In data set [2], the “tolerance (pI50) Cmpd. 1” value is 6.2, the “tolerance (pI50) Cmpd. 2” value is recorded as 6.8, the “tolerance (pI50) Cmpd. 3” value was determined as 6.4 and the “tolerance (pI50) Cmpd. 4” value was determined as 6.7. In data set [2], the “tolerance (pI50) Cmpd. 5” value was found to be 6.1, the “tolerance (pI50) MST” value was 5.5 and the “tolerance (pI50) TBT” value worked out at 6.1.
